From US20220389077A1, “ALLOGENEIC CELL COMPOSITIONS AND METHODS OF USE” (Poseida Therapeutics, Inc., priority 2018, published 2022)

B1: CD2z CSR: chimeric stimulatory receptor: CD2 signal peptide, extracellular, transmembrane and cytoplasmic domains with CD3z intracellular domain (SEQ ID NO: 17062) (protein)
chain: MSFPCKFVASFLLIFNVSSKGAVSKEITNALETWGALGQDINLDIPSFQMSDDIDDIKWEKTSDKKKIAQFRKEKETFKEKDTYKLFKNGTLKIKHLKTDDQDIYKVSIYDTKGKNVLEKIFDLKIQERVSKPKISWTCINTTLTCEVMNGTDPELNLYQDGKHLKLSQRVITHKWTTSLSAKFKCTAGNKVSKESSVEPVSCPEKGLDIYLIIGICGGGSLLMVFVALLVFYITKRKKQRSRRNDEELETRAHRVATEERGRKPHQIPASTPQNPATSQHPPPPPGHRSQAPSHRPPPPGHRVQHQPQKRPPAPSGTQVHQQKGPPLPRPRVQPKPPHGAAENSLSPSSNRVKFSRSADAPAYKQGQNQLYNELNLGRREEYDVLDKRRGRDPEMGGKPRRKNPQEGLYNELQKDKMAEAYSEIGMKGERRRGKGHDGLYQGLSTATKDTYDALHMQALPPR

Tests used:
Type in all cases: cell-based, human
DKO CAR-T cells = experiment: Expansion of TCRb/b2M double-knockout (DKO) CAR-T cells after stimulation with agonist mAbs anti-CD2, anti-CD3 and anti-CD28; conditions: 16 day culture; CSR delivered in piggyBac transposon
From the text: FIGS. 9A-9B are a series of plots showing that piggyBac® delivery of CSR enhances the expansion of TCRb/b2M double-knockout CAR-T cells. Pan T cells isolated from normal donor blood were genetically modified using the piggyBac® DNA modification system in combination with the Cas-CLOVER™ gene-editing system. Cells were electroporated in a single reaction with a transposon encoding a CAR, selection gene and a CSR (either CD28z or CD2z), an mRNA encoding the super piggyBac™ transposase enzyme, an mRNA encoding Cas-CLOVER™, and multiple guide RNA (gRNA) targeting TCRb and b2M in order to knockout the TCR and MHCI (double-knockout; DKO). The cells were subsequently stimulated with agonist mAbs anti-CD2, anti-CD3 and anti-CD28, and were later selected for genetic modification over the course of a 16 day culture period. At the end of the initial culture period all T cells expressed the CAR, indicating successful selection for genetically-modified cells (data not shown).

purified DKO CAR-T cells = experiment: Re-stimulation and secondary expansion of purified DKO CAR-T cells, with or without IL7 and IL15; conditions: 14 day culture; re-stimulation
Experimental: After initial genetic modification and a first round of stimulation and expansion, cells from each group (Mock (WT CAR-T cells), DKO CAR-T cells, DKO CAR-T cells+CD2z CSR, and DKO CAR-T cells+CD28z CSR) were purified for TCR^−MHCI^− cells using magnetic beads. The purified cells were then re-stimulated using anti-CD2, anti-CD3, and anti-CD28 agonist mAbs. At the end of the 14 day culture period, TCR and MHCI expression (A) as well as magnitude of cell population expansion (B) was determined. After this secondary expansion, all purified DKO cells, including those expressing either CD2z or CD28z CSR, were still extremely pure for DKO cells (>98.8% DKO).
FIG. 11 is a graph showing that cytokine supplementation can further expand purified DKO CAR-T cells expressing CSR upon re-stimulation. After initial genetic modification and a first round of stimulation and expansion, cells expressing CSRs were purified for DKO cells using magnetic beads. The purified cells were then re-stimulated using anti-CD2, anti-CD3, and anti-CD28 agonist mAbs in the presence exogenous purified recombinant IL7 and IL15. At the end of the 14 day culture period, magnitude of cell population expansion was determined. After a secondary expansion, all purified DKO cells, including those expressing either CD2z or CD28z CSR, were still extremely pure for TCR^−MHCI^− cells (>98.8% double knockout (data not shown)). […]

[1] = test system: CAR molecule on the surface of T cells; experiment: Staining for surface expression of CAR after secondary expansion; conditions: DKO cells
From the text: After secondary expansion, cells (Mock (WT T cells), WT CAR-T cells, DKO CAR-T cells, DKO CAR-T cells+CD2z CSR, and DKO CAR-T cells+CD28z CSR) were stained for the surface-expression of CAR and compared to control WT CAR-T cells and Mock T cells.

CAR-T cells = experiment: Expansion of CAR-T cells with CSR delivered transiently by mRNA or stably by piggyBac; conditions: for expansion of CAR-T cells (total live CAR-T cells): 19 day culture, BCMA CAR, CSR transient or stable
From the text: FIG. 18 is a graph showing that delivery of CSR enhances the expansion of CAR-T cells. CSRs were delivered to CAR-T cells either transiently by mRNA or stably by piggyBac®. Pan T cells isolated from the blood of a normal donor were genetically modified using the piggyBac® DNA modification system and the standard Poseida process. Cells were co-electroporated in a single reaction with mRNA encoding the Super piggyBac™ transposase enzyme (SPB), a transposon encoding a BCMA CAR and selection gene, along with an additional mRNA encoding a CSR (either CD28z or CD2z; resulting in transient expression) or a CD19 mRNA control, or, with a transposon encoding a BCMA CAR, selection gene and a CSR (either CD28z or CD2z; resulting in stable expression). The cells were subsequently stimulated with agonist mAbs anti-CD2, anti-CD3 and anti-CD28, and were later selected for genetic modification over the course of a 19 day culture period. At the end of the initial culture period all T cells expressed the CAR, indicating successful selection for genetically-modified cells (data not shown). Bars represent total live CAR-T cells in well and numbers indicate fold-enhancement of expansion above CAR-T cells produced in the absence of a CSR or a CD19 mRNA control.
Pan T cells isolated from healthy donor blood were genetically modified using the piggyBac® DNA modification system in combination with the Cas-CLOVER™ gene-editing system (CC) for the production of allogeneic (Allo) CAR-T cells, or without CC gene-editing for the production of autologous (Auto) CAR-T cells; auto CAR-T cells were produced by nucleofection of an mRNA encoding the super piggyBac® transposase enzyme (SPB) and a transposon encoding a CAR, selection gene and a safety switch. […] Following EP, all cells were subsequently stimulated with a cocktail of agonist mAbs anti-CD2, anti-CD3 and anti-CD28, and were later selected for genetic modification over the course of a 19-day culture period using the selection gene. […]

Molecule	expansion of the cells in comparison to DKO CAR-T cells alone (DKO CAR-T cells)	magnitude of cell population expansion compared to those not expressing either CSR (purified DKO CAR-T cells)	surface expression of CAR [1]	expansion of CAR-T cells (total live CAR-T cells) (CAR-T cells)	expansion of CAR-T cells compared to CAR-T cells produced without a CSR (CAR-T cells; 19-day culture, Auto and Allo CAR-T, CSR stable or mRNA 5, 10, 20 μg)
CD28z CSR: chimeric stimulatory receptor: CD28 signal peptide, extracellular, transmembrane and cytoplasmic domains with CD3z intracellular domain (SEQ ID NO: 17060)	at least a two fold expansion	enhanced expansion	does not have a significant impact	a greater degree of expansion	
B1	at least a two fold expansion	enhanced expansion	does not have a significant impact	a greater degree of expansion	a greater degree of expansion
